Experimental data taken from article PMC10023864.
Like-named read-outs stand apart in the source and are kept apart here.

Columns and labels:
hnRNPK KH3 [1] = target: T1, hnRNPK KH3 (Homo sapiens, UniProt P61978 384-463); test: ITC
hnRNPK KH3 [2] = target: T1, hnRNPK KH3; test: ITC; remark: listed apart in the source

T1 sequence (P61978 384-463): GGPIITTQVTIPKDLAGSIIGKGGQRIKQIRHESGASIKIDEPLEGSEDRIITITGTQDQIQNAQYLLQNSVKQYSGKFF

Binder: CUAAAGC (ssRNA) [mutant heptamer RNA]
- binding result (hnRNPK KH3 [1]): no binding

Binder: CUCCCGC (ssRNA) [heptamer RNA]
- Kd (hnRNPK KH3 [1]): 4.31 ± 0.68 µM
- Kd (hnRNPK KH3 [2]): 4.74 ± 1 µM
